Source: patent publication US8962795B2, “Factor H binding peptides and uses thereof” (The Trustees of the University of Pennsylvania, priority 2010, dated 2015)
Each block holds one sequence with its values, some of them ahead of it. Positions of bridges follow the written chain, without caps; N, C: chain ends. No end group written: not given here.

Legend:
factor H [1] = target: T1, factor H (Homo sapiens, UniProt P08603); test: Monoclonal phage ELISA, binding of phage clones to factor H (binding area localisation); details: SCR5-18 attributed in absence of stable binding to N- or C-terminus of factor H
T1 construct: Human factor H was purified from normal human serum (NHS) by 5-12% PEG precipitation; from tissue; host or cells: normal human serum (NHS)
T1 sequence (P08603 19-1231): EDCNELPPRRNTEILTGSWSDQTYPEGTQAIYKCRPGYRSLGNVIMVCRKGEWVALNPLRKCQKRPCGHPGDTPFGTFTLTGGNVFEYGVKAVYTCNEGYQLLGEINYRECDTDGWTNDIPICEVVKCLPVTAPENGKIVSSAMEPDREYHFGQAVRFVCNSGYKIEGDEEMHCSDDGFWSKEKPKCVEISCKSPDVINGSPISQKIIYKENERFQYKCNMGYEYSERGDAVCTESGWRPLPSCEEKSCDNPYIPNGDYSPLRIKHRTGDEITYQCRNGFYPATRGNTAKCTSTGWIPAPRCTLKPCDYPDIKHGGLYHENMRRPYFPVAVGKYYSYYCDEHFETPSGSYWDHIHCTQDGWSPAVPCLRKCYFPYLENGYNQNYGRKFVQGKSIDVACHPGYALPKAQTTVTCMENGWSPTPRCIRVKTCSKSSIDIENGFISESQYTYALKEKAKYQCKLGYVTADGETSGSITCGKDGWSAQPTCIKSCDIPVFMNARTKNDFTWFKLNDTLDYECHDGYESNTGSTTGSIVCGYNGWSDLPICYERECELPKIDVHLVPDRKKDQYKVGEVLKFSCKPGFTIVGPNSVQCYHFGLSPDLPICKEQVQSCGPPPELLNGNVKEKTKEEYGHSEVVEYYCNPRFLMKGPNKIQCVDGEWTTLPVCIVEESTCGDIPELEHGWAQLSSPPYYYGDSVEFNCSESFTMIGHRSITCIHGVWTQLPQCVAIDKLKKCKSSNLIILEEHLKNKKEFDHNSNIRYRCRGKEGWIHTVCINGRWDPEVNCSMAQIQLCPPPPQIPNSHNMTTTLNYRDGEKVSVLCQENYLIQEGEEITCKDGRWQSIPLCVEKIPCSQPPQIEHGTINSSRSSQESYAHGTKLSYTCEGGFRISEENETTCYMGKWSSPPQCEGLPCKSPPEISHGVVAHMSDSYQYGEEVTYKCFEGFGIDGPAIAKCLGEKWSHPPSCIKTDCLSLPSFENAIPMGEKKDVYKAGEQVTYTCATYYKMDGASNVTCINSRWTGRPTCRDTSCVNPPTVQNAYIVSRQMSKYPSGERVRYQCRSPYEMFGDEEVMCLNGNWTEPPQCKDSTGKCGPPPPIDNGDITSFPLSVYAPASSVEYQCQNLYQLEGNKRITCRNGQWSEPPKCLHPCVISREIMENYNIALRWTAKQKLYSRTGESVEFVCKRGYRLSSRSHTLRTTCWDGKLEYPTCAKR
Description: (§1) Microtiter wells were coated overnight with either factor H or BSA at 5 μg/mL in PBS at 4° C., and saturated with 5% non-fat milk in PBST for 1 h. Completely separated individual phage plaques from the third round of screening were picked and amplified. Phage particles of each amplified individual phage plaque were added to both factor H- and BSA-coated wells in parallel and allowed to bind at RT for 1 h. After six washes with PBST, bound phages were detected with HRP-conjugated anti-M13 monoclonal antibody (GE Healthcare), using ABTS (Roche) for color development. Clones that bound to factor H but not to BSA were considered positive; single-stranded DNA from positive clones was prepared using an M13 kit (Qiagen, Valencia, Calif.) and sequenced by the DNA sequencing facility of the University of Pennsylvania.
(§2) To localize the binding sites on factor H of the positive clones, we further tested each clone by monoclonal phage ELISA for binding to factor H and its N- and C-terminal fragments, i.e. fH1-4 and fH19-20.

Sheep erythrocytes = test: Hemolytic assay (factor H cell-surface binding); format: cell-based; details: for effect on hemolytic assay: peptide expressed as fusion protein with phage PIII domain, not shown
Description: (§3) To determine whether the binding of the 5C6 peptide interferes with the regulatory activity and cell-surface binding capacity of factor H, we performed factor H cofactor activity assays using purified C3b, factor H and factor I, as well as hemolytic assays, both which were performed in the presence of different concentrations of the 5C6 peptide. The hemolysis assay experiments were repeated at least three times using lepirudin plasma from different blood donors.
Hemolytic assays were performed to determine whether the peptide altered factor H cell-surface binding activity. Sheep erythrocytes (Cocalico Biological Inc., Reamstown, Pa.) were washed with VBS containing 5 mM Mg^2+/EGTA (VBS-Mg^2+/EGTA) until the supernatant was clear. The assay was titrated by lysing erythrocytes in serial dilution with water in a final volume of 300 μl. The OD405 of the supernatants was measured, and the amount of the erythrocytes yielding an OD405 of ˜1 was used in the assay. Serial dilutions of the 5C6 peptide or monoclonal antibody MH10 (which binds fH19-20 and inhibits factor H cell surface binding) with the determined amount of sheep erythrocytes and lepirudin plasma diluted 1:10 in VBS-Mg^2+/EGTA in a final volume of 300 μL were incubated at 37° C. for 1 h in a shaking water bath. After centrifugation the OD405 of the supernatants was measured, and the OD value was used to represent the cell lysis.

fH19-20 [2] = target: T2, fH19-20 (Homo sapiens, UniProt P08603); test: Monoclonal phage ELISA, binding of phage clones to fH19-20
T2 sequence (P08603 1107-1231): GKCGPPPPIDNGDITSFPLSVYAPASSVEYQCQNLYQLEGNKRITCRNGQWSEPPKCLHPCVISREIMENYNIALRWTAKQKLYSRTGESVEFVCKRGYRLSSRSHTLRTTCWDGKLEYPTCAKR
Description: as §1, §2

[3] = target: T3, factor H cofactor activity (Homo sapiens, UniProt P08603); test: Factor H cofactor activity assay (factor I-mediated cleavage of C3b); format: biochemical; details: for effect on cofactor assay: peptide expressed as fusion protein with phage PIII domain, not shown
T3 construct: Human factor H was purified from normal human serum (NHS) by 5-12% PEG precipitation; from tissue; host or cells: normal human serum (factor H, C3); factor I from unnamed 'other sources'
T3 sequence (P08603 19-1231): as the sequence (P08603 19-1231) above
Description: as §3
The factor H cofactor activity assay was performed according to known methods. In brief, 1.14 μM C3b, 16 nM factor I, and 72 nM factor H were incubated with various amounts of the 5C6 peptide (0.4, 4, and 40 μM, respectively) in PBS at 37° C. for 1 hr in a final volume of 20 μl. The reaction was terminated by adding SDS-PAGE loading buffer, and the samples were analyzed by 8% SDS-PAGE under reducing conditions, followed by Coomassie blue staining.

factor H [4] = target: T1, factor H; test: SPR, factor H on surface-bound peptide; format: binding; details: for SPR binding of factor H to immobilized peptide: biotinylated peptide on streptavidin chip, factor H 100 nM
Description: (§4) The binding of factor H with surface-bound 5C6 peptide was further characterized using surface plasmon resonance (SPR) on a ProteOn XPR36 instrument (Bio-Rad Inc., Hercules, Calif.) using PBST (10 mM sodium phosphate, 150 mM NaCl, 0.005% Tween 20) as running buffer. Streptavidin (50 μg/ml in 10 mM sodium acetate pH 5.0) was immobilized on a GLC sensor chip at 30° C. using amine coupling. The biotinylated 5C6 peptide and a biotinylated control peptide (linear compstatin; see above) were captured on separate streptavidin-coated channels to a density of ˜200 resonance units (RU). Purified factor H (Complement Technologies, Tyler, Tex.) or recombinant fragments fH1-4 and fH19-20 were injected at a concentration of 100 nM for 2 rain at a flow rate of 25 μl/min with a dissociation phase of 6 min. A single injection of 2 M NaCl for 30 s was used to regenerate the surface between injections. Data were processed using ProteOn Manager software by subtracting the signals from interspots and a blank streptavidin channel. In order to estimate the apparent binding affinity, a twofold dilution series of factor H (0.24-500 nM) was injected using the same protocol and fitted to various kinetic models using ProteOn Manager. In order to exclude sensor chip matrix-specific surface binding, the same experiment was repeated on Biacore 3000 instrument (GE Healthcare) using a SA chip under the same conditions as described above.

[5] = system: AP complement activation (surface-bound activated C3); test: Inhibition of biomaterial-induced AP activation by immobilized peptide (surface-bound activated C3); format: biochemical, human
Description: Polystyrene microtiter wells, which served as a model biomaterial, were coated overnight with streptavidin (10 μg/ml in PBS) at 4° C. After washing, the biotinylated 5C6 peptide and the control peptide (10 μg/ml in PBS) were added to the wells and incubated at RT for 30 min. The wells were again washed and serially diluted lepirudin plasma in VBS-Mg^2+/EGTA was added and incubated at RT for 1 h. In some experiments intended to monitor the inhibition of AP by immobilized peptide on a HSA monolayer, the washed wells were saturated with 2% HSA in PBS for 1 h, prior to the addition of plasma. In both series of experiments, the wells were then washed, and the binding sites were saturated with 2% BSA in PBS for 1 h. Bound fragments of activated C3 were detected with an HRP-conjugated goat anti-human C3 polyclonal antibody (Cappel, Aurora, Ohio). In parallel, captured factor H from serum was detected with goat anti-human factor H polyclonal antibody followed by HRP-conjugated rabbit anti-goat IgG in duplicate wells as described above.

factor H [6] = target: T1, factor H; test: ELISA, binding of purified factor H to immobilized biotinylated peptide; details: biotinylated peptide captured by coated streptavidin, polyclonal antibody detection
Description: (§5) Two approaches were used to evaluate the binding of synthetic peptides to factor H. First, we used peptide-phage competition assays, in which serially diluted synthetic peptide was added to its parent phage at the step of phage binding to coated factor H. The rest of the steps were performed as described above for monoclonal phage ELISA. Second, ELISA experiments were used to evaluate the binding of factor H to the immobilized peptide. Microtiter plates were coated with streptavidin (New England Biolabs) at 10 μg/ml in PBS at 4° C. overnight, and saturated with 2% BSA in PBS. After washing, either the biotinylated 5C6 peptide or a biotinylated control peptide (linear compstatin; IAVVQDWGHHRAT; SEQ ID NO:10) was added at 10 μg/ml and allowed to bind at RT for 30 min. The wells were washed again, and factor H serially diluted in PBS, starting with 2.5 μg/ml, was added. After 1 h of binding, the plates were washed, and bound factor H was detected with goat anti-human factor H polyclonal antibody (Quidel, San Diego, Calif.), followed by HRP-conjugated rabbit anti-goat IgG (Bio-Rad). […]

factor H [7] = target: T1, factor H; test: Capture of factor H from plasma by immobilized peptide; format: binding; details: vs control peptide
Description: as §5, with “After washing, either the biotinylated 5C6 peptide or a biotinylated control peptide (linear compstatin; IAVVQDWGHHRAT; SEQ ID NO:10) was added at 10 μg/ml and allowed to bind at RT for 30 min. The wells were washed again, and factor H serially diluted in PBS, starting with 2.5 μg/ml, was added.” left out
Polystyrene microtiter wells, which served as a model biomaterial, were coated overnight with streptavidin (10 μg/ml in PBS) at 4° C. […] Bound fragments of activated C3 were detected with an HRP-conjugated goat anti-human C3 polyclonal antibody (Cappel, Aurora, Ohio). In parallel, captured factor H from serum was detected with goat anti-human factor H polyclonal antibody followed by HRP-conjugated rabbit anti-goat IgG in duplicate wells as described above.

factor H [8] = target: T1, factor H; test: Peptide-phage competition assay; format: binding; details: serially diluted synthetic peptide; coated factor H
Description: as §5

factor H [9] = target: T1, factor H; test: Factor H concentration in plasma after incubation on peptide-coated surface; details: data not shown
fH1-4 [10] = target: T4, fH1-4 (Homo sapiens, UniProt P08603); test: SPR, fH1-4 fragment on surface-bound peptide; format: binding; details: fragment 100 nM
T4 construct: made in house
T4 sequence (P08603 19-264): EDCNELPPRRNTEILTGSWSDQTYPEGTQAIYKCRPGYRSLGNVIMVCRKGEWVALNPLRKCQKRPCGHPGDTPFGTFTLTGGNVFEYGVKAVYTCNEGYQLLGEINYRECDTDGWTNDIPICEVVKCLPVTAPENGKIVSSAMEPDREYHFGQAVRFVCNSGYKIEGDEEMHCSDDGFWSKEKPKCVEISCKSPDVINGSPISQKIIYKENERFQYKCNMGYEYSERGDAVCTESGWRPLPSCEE
Description: as §4, with “In order to exclude sensor chip matrix-specific surface binding, the same experiment was repeated on Biacore 3000 instrument (GE Healthcare) using a SA chip under the same conditions as described above.” left out

fH19-20 [11] = target: T2, fH19-20; test: SPR, fH19-20 fragment on surface-bound peptide; format: binding; details: fragment 100 nM
Description: as §4, with “In order to exclude sensor chip matrix-specific surface binding, the same experiment was repeated on Biacore 3000 instrument (GE Healthcare) using a SA chip under the same conditions as described above.” left out

fH1-4 [12] = target: T4, fH1-4; test: Monoclonal phage ELISA, binding of phage clones to fH1-4
Description: as §1, §2

Sequence: ASSCMYSYWCTH [5-2B2]
Binding area on factor H (factor H [1]): SCR5-18

Sequence: ASSGMCFTKKTVLC [4A1]
effect on hemolytic assay (Sheep erythrocytes): affected
Binding area on factor H (factor H [1]): SCR19-20
binding of phage clone to fH19-20 (fH19-20 [2]): bind to the C-terminal two SCR of factor H

Sequence: IAVVQDWGHHRAT [Control Peptide (LC), reference compound]
SPR binding of factor H to immobilized peptide (factor H [4]): no significant binding
binding signal for factor H on immobilized peptide (ELISA) (factor H [6]): not

Continued, in another order:

Binding area on factor H (factor H [1]): SCR5-18
Sequence: ASPSWCSYSHWCRH [5D1]

Binding area on factor H (factor H [1]): SCR5-18
Sequence: ASSFKCDYSHWCLH [5E10]

Binding area on factor H (factor H [1]): SCR5-18
Sequence: ASSNVCSYSYWCAH [5G11]

effect on cofactor assay [3]: no such effect
effect on factor H cofactor activity ([3]; synthetic peptide up to 40 μM, 550-fold excess over factor H (72 nM)): did not inhibit
SPR binding of factor H to immobilized peptide (factor H [4]): high binding activity and stability
binding signal for factor H on immobilized peptide (ELISA) (factor H [6]): strong binding signal
Binding area on factor H (factor H [1]): SCR5-18
factor H capture from plasma by immobilized peptide (factor H [7]; polystyrene with HSA monolayer): pronounced factor H capture
factor H capture from plasma by immobilized peptide (factor H [7]; polystyrene without HSA pre-saturation): captured more factor H
inhibition of binding of the other class 3 phages to factor H by 5C6 peptide (factor H [8]): strongly inhibited
factor H concentration in plasma incubated on peptide-coated surface (factor H [9]): no significant decline
SPR binding of fH1-4 fragment to immobilized peptide (fH1-4 [10]): no binding
Sequence: ASSSRCTYDHWCSH (disulfide 6-12 (inferred); not fully specified; also: biotinylated) [5C6, used biotinylated when immobilized]
lysis of sheep erythrocytes (Sheep erythrocytes; 10-fold diluted lepirudin plasma, peptide up to 40 μM): No lysis
effect on hemolytic assay (Sheep erythrocytes): no such effect
SPR apparent binding affinity for factor H (factor H [4]; dilution series of factor H 0.24-500 nM, deviation from single-site model, apparent): concentration-dependent binding with high affinity
complement activation on peptide-immobilized surface ([5]; polystyrene with HSA monolayer, lepirudin plasma in VBS-Mg2+/EGTA, vs control peptide): substantially inhibited
complement activation on peptide-immobilized surface ([5]; polystyrene without HSA pre-saturation, plasma): strongly inhibited
inhibition of parent phage binding to factor H by synthetic peptide (factor H [8]): inhibited its parent phages from binding to factor H in a dose-dependent manner
SPR binding of fH19-20 fragment to immobilized peptide (fH19-20 [11]): a significant SPR response could also be detected for the fH19-20 fragment, this interaction was not stable

effect on cofactor assay [3]: affected
Binding area on factor H (factor H [1]): SCR1-4
Sequence: ASSYDVGYSHDCRF [5-2C6]
binding of phage clone to fH1-4 (fH1-4 [12]): bound to the N-terminal regulatory region of factor H
